Test results from patent publication US20250051413A1 (ASKGENE PHARMA, published 2025).

Molecular target: human IL-12 receptor (b1 and b2 chain) (human, UniProt P42701 24-662; Q99665 24-862)
Experiment: cell-based or functional assay

Chain of human IL-12 receptor (b1 and b2 chain) (Q99665 24-862, chain 2 of 2, other chains not shown): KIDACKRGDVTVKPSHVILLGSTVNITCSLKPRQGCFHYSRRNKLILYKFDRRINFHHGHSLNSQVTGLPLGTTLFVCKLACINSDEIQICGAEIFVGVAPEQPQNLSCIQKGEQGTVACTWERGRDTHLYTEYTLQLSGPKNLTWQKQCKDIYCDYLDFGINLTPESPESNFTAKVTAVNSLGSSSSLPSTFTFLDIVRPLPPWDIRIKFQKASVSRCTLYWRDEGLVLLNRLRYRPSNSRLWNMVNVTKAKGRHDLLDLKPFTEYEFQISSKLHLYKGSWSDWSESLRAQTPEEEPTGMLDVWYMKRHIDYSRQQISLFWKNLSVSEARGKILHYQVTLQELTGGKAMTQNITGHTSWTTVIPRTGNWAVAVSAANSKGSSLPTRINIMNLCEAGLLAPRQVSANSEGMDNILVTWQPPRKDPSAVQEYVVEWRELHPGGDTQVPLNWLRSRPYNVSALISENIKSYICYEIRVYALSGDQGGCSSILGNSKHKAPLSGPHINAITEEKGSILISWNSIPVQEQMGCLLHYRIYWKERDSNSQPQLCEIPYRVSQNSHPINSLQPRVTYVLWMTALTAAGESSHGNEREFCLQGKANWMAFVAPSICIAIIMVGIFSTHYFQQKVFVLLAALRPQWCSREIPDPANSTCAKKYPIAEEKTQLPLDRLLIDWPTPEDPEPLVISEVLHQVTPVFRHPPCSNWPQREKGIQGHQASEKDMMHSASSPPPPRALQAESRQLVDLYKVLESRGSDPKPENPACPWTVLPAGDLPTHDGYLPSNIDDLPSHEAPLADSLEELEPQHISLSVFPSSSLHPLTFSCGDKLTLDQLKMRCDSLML

B1: ASKG129C (Fc fusion)
chain 1: QVQLVQSGVEVKKPGASVKVSCKASGYTFTNYYMYWVRQAPGQGLEWMGGINPSNGGTNFNEKFKNRVTLTTDSSTTTAYMELKSLQFDDTAVYYCARRDYRFDMGFDYWGQGTTVTVSSASTKGPSVFPLAPSSKSTSGGTAALGCLVKDYFPEPVTVSWNSGALTSGVHTFPAVLQSSGLYSLSSVVTVPSSSLGTQTYICNVNHKPSNTKVDKKAEPKSCDKTHTCPPCPAPEAAGAPSVFLFPPKPKDTLYITREPEVTCVVVDVSHEDPEVKFNWYVDGVEVHNAKTKPREEQYNSTYRVVSVLTVLHQDWLNGKEYKCKVSNKALPAPIEKTISKAKGQPREPQVYTLPPSREEMTKNQVSLTCLVKGFYPSDIAVEWESNGQPENNYKTTPPVLDSDGSFFLYSKLTVDKSRWQQGNVFSCSVMHEALHNHYTQKSLSLSPGGGGSGGGGSAAGGGGSGGGGSDIQMTQSPSSLSASVGDRVTITCRASQGISSWLAWYQQKPEKAPKSLIYAASSLQSGVPSRFSGSGSGTDFTLTISSLQPEDFATYYCQQYNIYPYTFGQGTKLEIKSGGGGSGGGGSGGGGSEVQLVQSGAEVKKPGESLKISCKGSGYSFTTYWLGWVRQMPGKGLDWIGIMSPVDSDIRYSPSFQGQVTMSVDKSITTAYLQWNSLKASDTAMYYCARRRPGQGYFDFWGQGTLVTVSS
chain 2: EVQLVESGGGLVQPGGSLRLSCAASGYTVSSYCMGWFRQAPGKGREGVSAIDSDGSVSYADSVKGRFTISKDNSKNTLYLQMNSLRAEDTAVYFCAADLCWVDQDQGEYNTWGQGTLVTVSSGSEPKSSDKTHTCPPCPAPEAAGGPSVFLFPPKPKDTLYITREPEVTCVVVDVSHEDPEVKFNWYVDGVEVHNAKTKPREEQYNSTYRVVSVLTVLHQDWLNGKEYKCKVSNKALPAPIEKTISKAKGQPREPQVYTLPPSREEMTKNQVSLTCLVKGFYPSDIAVEWESNGQPENNYKTTPPVLDSDGSFFLYSKLTVDKSRWQQGNVFSCSVMHEALHNHYTQKSLSLSPGGGGSGGGGSAAGGGGSGGGGSDIQMTQSPSSLSASVGDRVTITCRASQGISSWLAWYQQKPEKAPKSLIYAASSLQSGVPSRFSGSGSGTDFTLTISSLQPEDFATYYCQQYNIYPYTFGQGTKLEIKSGGGGSGGGGSGGGGSEVQLVQSGAEVKKPGESLKISCKGSGYSFTTYWLGWVRQMPGKGLDWIGIMSPVDSDIRYSPSFQGQVTMSVDKSITTAYLQWNSLKASDTAMYYCARRRPGQGYFDFWGQGTLVTVSS
EC50 of p-STAT4 induction in human PBMC, CD4+ T cells: 2.52 nM
EC50 of p-STAT4 induction in human PBMC, CD8+ T cells: 2.09 nM
EC50 of p-STAT4 induction in human PBMC, NK cells: 3.75 nM
fold decrease in cytokine releasing assay with human PBMC, activity relative to IL-12: ~1000 times
